Measurements published in patent US20240294983A1 (CALIFORNIA INSTITUTE OF TECHNOLOGY, published 2024).

B1: β-catenin (other, human, UniProt P35222 2-781, looked up)
chain: ATQADLMELDMAMEPDRKAAVSHWQQQSYLDSGIHSGATTTAPSLSGKGNPEEEDVDTSQVLYEWEQGFSQSFTQEQVADIDGQYAMTRAQRVRAAMFPETLDEGMQIPSTQFDAAHPTNVQRLAEPSQMLKHAVVNLINYQDDAELATRAIPELTKLLNDEDQVVVNKAAVMVHQLSKKEASRHAIMRSPQMVSAIVRTMQNTNDVETARCTAGTLHNLSHHREGLLAIFKSGGIPALVKMLGSPVDSVLFYAITTLHNLLLHQEGAKMAVRLAGGLQKMVALLNKTNVKFLAITTDCLQILAYGNQESKLIILASGGPQALVNIMRTYTYEKLLWTTSRVLKVLSVCSSNKPAIVEAGGMQALGLHLTDPSQRLVQNCLWTLRNLSDAATKQEGMEGLLGTLVQLLGSDDINVVTCAAGILSNLTCNNYKNKMMVCQVGGIEALVRTVLRAGDREDITEPAICALRHLTSRHQEAEMAQNAVRLHYGLPVVVKLLHPPSHWPLIKATVGLIRNLALCPANHAPLREQGAIPRLVQLLVRAHQDTQRRTSMGGTQQQFVEGVRMEEIVEGCTGALHILARDVHNRIVIRGLNTIPLFVQLLYSPIENIQRVAAGVLCELAQDKEAAEAIEAEGATAPLTELLHSRNEGVATYAAAVLFRMSEDKPQDYKKRLSVELTSSLFRTEPMAWNETADLGLDIGAQGEPLGYRQDDPSYRSFHSGGYGQDALGMDPMMEHEMGGHHPGADYPVDGLPDLGHAQDLMDGLPPGDSNQLAWFDTDL
notes: Endogenous protein in fixed human cells or tissue, detected through an unnamed primary antibody and a fractional-initiator secondary antibody probe
B2: SC35 (protein, human, UniProt Q01130 2-221, looked up)
chain: SYGRPPPDVEGMTSLKVDNLTYRTSPDTLRRVFEKYGRVGDVYIPRDRYTKESRGFAFVRFHDKRDAEDAMDAMDGAVLDGRELRVQMARYGRPPDSHHSRRGPPPRRYGGGGYGRRSRSPRRRRRSRSRSRSRSRSRSRSRYSRSKSRSRTRSRSRSTSKSRSARRSKSKSSSVSRSRSRSRSRSRSRSPPPVSKRESKSRSRSKSPPKSPEEEGAVSS
B3: E-cadherin (receptor, human, UniProt P12830 155-882, looked up)
chain: DWVIPPISCPENEKGPFPKNLVQIKSNKDKEGKVFYSITGQGADTPPVGVFIIERETGWLKVTEPLDRERIATYTLFSHAVSSNGNAVEDPMEILITVTDQNDNKPEFTQEVFKGSVMEGALPGTSVMEVTATDADDDVNTYNAAIAYTILSQDPELPDKNMFTINRNTGVISVVTTGLDRESFPTYTLVVQAADLQGEGLSTTATAVITVTDTNDNPPIFNPTTYKGQVPENEANVVITTLKVTDADAPNTPAWEAVYTILNDDGGQFVVTTNPVNNDGILKTAKGLDFEAKQQYILHVAVTNVVPFEVSLTTSTATVTVDVLDVNEAPIFVPPEKRVEVSEDFGVGQEITSYTAQEPDTFMEQKITYRIWRDTANWLEINPDTGAISTRAELDREDFEHVKNSTYTALIIATDNGSPVATGTGTLLLILSDVNDNAPIPEPRTIFFCERNPKPQVINIIDADLPPNTSPFTAELTHGASANWTIQYNDPTQESIILKPKMALEVGDYKINLKLMDNQNKDQVTTLEVSVCDCEGAAGVCRKAQPVEAGLQIPAILGILGGILALLILILLLLLFLRRRAVVKEPLLPPEDDTRDNVYYYDEEGGGEEDQDFDLSQLHRGLDARPEVTRNDVAPTLMSVPRYLPRPANPDEIGNFIDENLKAADTDPTAPPYDSLLVFDYEGSGSEAASLSSLNSSESDKDQDYDYLNEWGNRFKKLADMYGGGEDD
notes: Endogenous membrane protein in fixed human cells or tissue, detected through an unnamed primary antibody and a fractional-initiator secondary antibody probe

Assays:
E-cadherin [1] = biological target: B3; test: HCR proximity imaging; A-431 cells (positive) against HeLa cells (negative, lacking E-cadherin); mean±SEM, N=3 wells
Protocol: (§1) For each pair of sample types, signal-to-background was calculated using the positive sample type to estimate signal plus background and the negative sample type to estimate background.
(§2) While A-431 cells formed the β-catenin:E-cadherin complex at the cell membrane of intercellular junctions,⁶³ HeLa cells express N-cadherin rather than E-cadherin^{64,65} and therefore lacked the β-catenin:E-cadherin complex.

E-cadherin [2] = biological target: B3; test: HCR proximity imaging; normal against invasive lobular carcinoma FFPE human breast tissue sections; mean±SEM, N=3 sections
Protocol: as §1
The β-catenin:E-cadherin target complex was detected in highly autofluorescent FFPE human breast tissue sections. The β-catenin:E-cadherin complex is robustly formed in normal breast epithelial cells, but the expression of and interaction between the β-catenin and E-cadherin proteins is interrupted when breast epithelial cells become cancerous in the invasive lobular carcinoma disease process.^{66,67} Paired normal and invasive lobular carcinoma FFPE breast tissue sections from the same patient were evaluated for the β-catenin:E-cadherin target complex, yielding strong HCR signal in normal breast tissue (FIG. 45C; positive sample) and no visible staining in cancerous tissue (FIG. 45D; negative sample), with a signal-to-background ratio of 30±3 between the two tissue types (mean±SEM for representative regions of N=3 replicate sections).

E-cadherin [3] = biological target: B3; test: HCR proximity imaging in FFPE human breast tissue section; background from a region with low/no complex; SEM, N=3 regions
Protocol: FIG. 16 depicts imaging the β-catenin:E-cadherin target complex in a highly autofluorescent FFPE human breast tissue section (5-μm thickness) using a pair of fractional-initiator probes, a proximity probe, and an HCR amplifier. Background was assessed by fluorescence in a region of the sample in which there is low/no abundance of the protein:protein complex. A high signal-to-background ratio was obtained (70±20) (standard error of the mean, N=3 representative regions).

E-cadherin [4] = biological target: B3; test: HCR proximity imaging of the endogenous complex in fixed A-431 human cells; background from controls omitting the antibodies to one protein; SEM, N=3 cells
Protocol: For each protein:protein complex, background was assessed by technical controls in which the antibodies corresponding to one protein of the complex were omitted, simulating a scenario in which the two proteins are not in a complex with one another. For each of three protein:protein target complexes, a high signal-to-background ratio was obtained: 170±10 (SC35:SON), 50±10 (β-catenin:E-cadherin), and 140±10 (α-tubulin:β-tubulin) (standard error of the mean, representative regions within N=3 cells).

[5] = substrate: SON (human) (UniProt P18583); test: as above
SON (human), sequence (P18583 2-2426 limits assumed): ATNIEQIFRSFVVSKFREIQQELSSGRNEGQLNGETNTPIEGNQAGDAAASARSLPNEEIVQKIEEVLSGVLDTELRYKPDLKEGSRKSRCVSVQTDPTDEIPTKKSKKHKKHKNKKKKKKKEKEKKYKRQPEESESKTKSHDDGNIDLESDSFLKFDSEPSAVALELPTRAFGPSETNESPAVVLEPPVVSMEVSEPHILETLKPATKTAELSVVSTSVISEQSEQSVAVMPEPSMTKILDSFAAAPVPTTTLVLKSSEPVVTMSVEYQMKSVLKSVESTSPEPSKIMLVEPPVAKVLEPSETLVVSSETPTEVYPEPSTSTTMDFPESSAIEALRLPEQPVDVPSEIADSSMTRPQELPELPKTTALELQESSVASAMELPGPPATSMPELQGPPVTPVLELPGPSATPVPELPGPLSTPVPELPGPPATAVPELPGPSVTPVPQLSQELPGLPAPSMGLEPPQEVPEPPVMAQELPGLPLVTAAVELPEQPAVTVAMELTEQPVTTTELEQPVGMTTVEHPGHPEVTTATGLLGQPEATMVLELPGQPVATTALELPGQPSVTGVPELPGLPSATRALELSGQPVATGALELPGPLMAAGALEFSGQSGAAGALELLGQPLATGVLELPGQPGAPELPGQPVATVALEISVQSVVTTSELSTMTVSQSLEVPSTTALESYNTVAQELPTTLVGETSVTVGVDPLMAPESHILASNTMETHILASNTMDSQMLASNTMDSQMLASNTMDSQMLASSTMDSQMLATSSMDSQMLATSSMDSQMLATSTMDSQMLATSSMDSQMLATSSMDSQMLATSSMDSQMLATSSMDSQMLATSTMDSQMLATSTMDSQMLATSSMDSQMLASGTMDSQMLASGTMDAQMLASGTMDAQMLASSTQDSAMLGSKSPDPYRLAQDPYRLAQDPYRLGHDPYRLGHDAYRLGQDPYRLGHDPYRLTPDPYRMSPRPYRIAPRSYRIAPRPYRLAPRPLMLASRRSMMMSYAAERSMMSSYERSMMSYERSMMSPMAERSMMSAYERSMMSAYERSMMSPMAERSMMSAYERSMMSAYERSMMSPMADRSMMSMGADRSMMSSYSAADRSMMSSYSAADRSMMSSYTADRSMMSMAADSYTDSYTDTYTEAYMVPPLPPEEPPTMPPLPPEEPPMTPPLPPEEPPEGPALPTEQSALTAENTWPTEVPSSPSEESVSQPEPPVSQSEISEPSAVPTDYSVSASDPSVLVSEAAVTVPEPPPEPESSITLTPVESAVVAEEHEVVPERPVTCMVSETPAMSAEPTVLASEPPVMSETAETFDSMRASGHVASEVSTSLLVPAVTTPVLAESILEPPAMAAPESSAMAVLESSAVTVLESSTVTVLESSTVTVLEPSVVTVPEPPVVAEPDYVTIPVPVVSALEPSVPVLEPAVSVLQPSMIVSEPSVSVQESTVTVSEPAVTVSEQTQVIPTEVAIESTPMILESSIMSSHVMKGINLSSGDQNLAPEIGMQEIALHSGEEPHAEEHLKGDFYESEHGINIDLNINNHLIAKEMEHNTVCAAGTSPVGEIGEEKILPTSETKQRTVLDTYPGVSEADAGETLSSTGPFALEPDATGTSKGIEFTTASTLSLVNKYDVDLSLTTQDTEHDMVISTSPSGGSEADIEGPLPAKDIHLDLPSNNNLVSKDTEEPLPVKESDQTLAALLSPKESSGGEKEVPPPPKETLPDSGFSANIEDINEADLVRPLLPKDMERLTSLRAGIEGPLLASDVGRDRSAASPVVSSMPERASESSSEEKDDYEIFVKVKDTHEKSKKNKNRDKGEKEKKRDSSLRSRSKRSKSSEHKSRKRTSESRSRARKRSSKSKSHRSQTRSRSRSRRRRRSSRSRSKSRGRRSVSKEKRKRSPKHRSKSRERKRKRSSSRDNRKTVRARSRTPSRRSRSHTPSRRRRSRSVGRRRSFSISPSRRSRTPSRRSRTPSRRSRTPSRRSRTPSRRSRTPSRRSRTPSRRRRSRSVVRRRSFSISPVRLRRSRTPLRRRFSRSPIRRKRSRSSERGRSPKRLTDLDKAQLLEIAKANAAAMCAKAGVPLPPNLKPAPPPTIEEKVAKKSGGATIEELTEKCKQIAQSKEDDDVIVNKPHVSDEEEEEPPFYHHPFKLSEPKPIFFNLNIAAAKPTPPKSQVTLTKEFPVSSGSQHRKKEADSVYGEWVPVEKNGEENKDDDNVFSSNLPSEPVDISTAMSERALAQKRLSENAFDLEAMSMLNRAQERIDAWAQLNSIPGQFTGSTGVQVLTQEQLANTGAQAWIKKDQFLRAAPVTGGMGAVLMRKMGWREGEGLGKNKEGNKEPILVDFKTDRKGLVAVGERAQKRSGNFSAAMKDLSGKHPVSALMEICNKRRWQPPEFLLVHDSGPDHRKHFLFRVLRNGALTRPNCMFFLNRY

β-catenin = biological target: B1; test: HCR proximity imaging; A-431 cells positive sample, HeLa cells negative sample
Protocol: as §1, §2

Binder: B1
signal-to-background ratio (E-cadherin [1]): 26 | signal-to-background ratio (E-cadherin [2]): 30 | signal-to-background ratio (E-cadherin [3]): 70 | signal-to-background ratio (E-cadherin [4]): 50

Binder: B2
signal-to-background ratio [5]: 170

Binder: B3
binding result (β-catenin): binds
